We go through 17 molecules from US20140220040A1 (ARCA BIOPHARMA, published 2014).

Substitutions are numbered along the chain they refer to.

Sequences and labels used below:
T1: Human LRP6-Fc (R&D Systems), recombinant human LRP6 containing the complete extracellular domain (human, UniProt O75581 20-1370)
T1 construct: Bought protein; also called hLRP6; Fc-antigen; not shown: Fc part of the bought fusion protein
T1 sequence: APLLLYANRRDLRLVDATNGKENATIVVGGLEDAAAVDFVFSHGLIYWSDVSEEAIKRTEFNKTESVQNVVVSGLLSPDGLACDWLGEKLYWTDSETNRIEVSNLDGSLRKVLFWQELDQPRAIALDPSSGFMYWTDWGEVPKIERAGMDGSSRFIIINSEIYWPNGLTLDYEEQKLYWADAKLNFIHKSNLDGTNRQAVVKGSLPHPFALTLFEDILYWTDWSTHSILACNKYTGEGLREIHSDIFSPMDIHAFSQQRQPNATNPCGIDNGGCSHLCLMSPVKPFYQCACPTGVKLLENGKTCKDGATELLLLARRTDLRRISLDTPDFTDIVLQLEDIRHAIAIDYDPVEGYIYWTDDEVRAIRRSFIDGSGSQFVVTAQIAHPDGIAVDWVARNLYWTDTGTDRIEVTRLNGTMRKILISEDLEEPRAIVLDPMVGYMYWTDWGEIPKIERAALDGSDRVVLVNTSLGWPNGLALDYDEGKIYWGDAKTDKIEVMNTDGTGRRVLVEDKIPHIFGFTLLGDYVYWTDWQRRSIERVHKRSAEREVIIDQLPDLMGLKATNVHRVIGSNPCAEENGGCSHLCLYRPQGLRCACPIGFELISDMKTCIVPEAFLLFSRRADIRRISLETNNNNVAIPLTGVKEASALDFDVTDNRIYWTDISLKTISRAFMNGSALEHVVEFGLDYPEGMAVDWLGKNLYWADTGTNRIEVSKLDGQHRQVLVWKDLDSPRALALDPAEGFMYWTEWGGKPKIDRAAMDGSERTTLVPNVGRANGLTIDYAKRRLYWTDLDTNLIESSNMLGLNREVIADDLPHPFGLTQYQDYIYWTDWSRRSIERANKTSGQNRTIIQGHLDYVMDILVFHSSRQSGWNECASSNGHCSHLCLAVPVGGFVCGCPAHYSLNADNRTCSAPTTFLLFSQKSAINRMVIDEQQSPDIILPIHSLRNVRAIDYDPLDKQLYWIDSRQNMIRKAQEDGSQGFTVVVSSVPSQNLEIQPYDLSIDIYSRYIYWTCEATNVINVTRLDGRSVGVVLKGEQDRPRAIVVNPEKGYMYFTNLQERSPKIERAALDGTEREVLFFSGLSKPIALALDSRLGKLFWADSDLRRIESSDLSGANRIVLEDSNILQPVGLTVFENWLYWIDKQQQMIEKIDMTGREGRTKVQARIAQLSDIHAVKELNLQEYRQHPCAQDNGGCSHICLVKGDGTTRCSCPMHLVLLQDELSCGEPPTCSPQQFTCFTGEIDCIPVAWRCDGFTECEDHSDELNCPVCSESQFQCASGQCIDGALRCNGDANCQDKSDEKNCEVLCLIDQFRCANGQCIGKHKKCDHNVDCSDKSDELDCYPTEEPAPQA

B1: anti-LRP6 monoclonal antibody 77.2 (antibody, V domains shown)
VH: QVQLQQSGAELAKPGASVKMSCKASGYTFTSYWMHWVKQRPGQGLEWIGYINPSTGYTEYNQNFRDKATLTADKSSSTANMQLSSLTSEDSAVYYCARTAQYYGSPRGYYAMDSWGQGTSVTVSS
VL: DIVMTQAAFSNPVTLGTSASISCRSSKSLLHSNGITYLCWFLQKPGQSPQLLIYLMSNLASGVPDRFSSSGSGTDFTLRISRVEAEDVGVYFCAQNLDLPWTFGGGTKLEI
notes: Murine hybridoma mAb, protein G purified; also called mAb 77.2; VH1/VL1
B2: anti-LRP6 monoclonal antibody 1281.1 (antibody, V domains shown)
VH: B1 VH with M20I, S54N, T58S, N63K, D73N, E89D
VL: B1 VL with L55Q
notes: Murine hybridoma mAb, protein G purified; also called VH19/VL19
B3: anti-LRP6 monoclonal antibody 413.1 (antibody, V domains shown)
VH: EIQLQQSGPELVKPGASVKVSCKASGYAFTSYNMYWVKQSHGKGLEWIGYIDPYNGGTDSNQNFKGKATLTVDKSSSTAFMHLNSLTSEDSAVYYCARGGMGLRRDHFDYWGQGTSLTVSS
VL: QIVLTQSPAIMSASPGEKVTISCSANSSVRYMFWYQQKPGSFPKPWTYRTSNLASGVPARFSGSGSGTSYSLTISSMEAEDVATYYCQQYHSYPWTFGGGTKLEI
notes: Murine hybridoma mAb, protein G purified; also called VH5/VL5
B4: anti-LRP6 monoclonal antibody 421.1 (antibody, V domains shown)
VH: QVQLQQSGPELVKPGASVRISCKASGYTFTTYYIHWLKQRPGQGLEWIGWIFPGNVNTKYNAKFKGKATLTADKSSSTAYMQLSSLTSEDSAVYFCAREELQYYFDYWGQGSTLTVSS
VL: B3 VL with Y31F, F42S, W46L, T47I, S64C, V82A
notes: Murine hybridoma mAb, protein G purified; also called VH6/VL6
B5: anti-LRP6 monoclonal antibody 537.2 (antibody, V domains shown)
VH: DVQLQESGPGLVKPSQSLSLTCSVTGYSITSGYYWNWIRQFPGDKLEWMGHINYDGRDNYNPSLKNRISITRDTSKNQFFLKLNSVTTEDTATYYCAREFGNFPYYFDYWGQGTTLTVSS
VL: B3 VL with N26Y, Y31F, F42S, W46L, T47I, P58S, V82A
notes: Murine hybridoma mAb, protein G purified; also called VH8/VL8
B6: anti-LRP6 monoclonal antibody 620.1 (antibody, V domains shown)
VH: B3 VH with G44S, D59N, S60Y, N63K, F80Y, H107Y, Y110F, S116T
VL: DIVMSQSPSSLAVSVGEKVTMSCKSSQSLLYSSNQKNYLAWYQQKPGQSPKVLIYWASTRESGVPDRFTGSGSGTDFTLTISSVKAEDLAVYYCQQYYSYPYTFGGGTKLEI
notes: Murine hybridoma mAb, protein G purified; also called VH10/VL10
B7: anti-LRP6 monoclonal antibody 856.6 (antibody, V domains shown)
VH: B4 VH with E100G, S112T
VL: B3 VL with Y31F, F42S, W46L, T47I, V82A
notes: Murine hybridoma mAb, protein G purified; also called VH11/VL11
B8: anti-LRP6 monoclonal antibody 1253.12 (antibody, V domains shown)
VH: B4 VH with K13M, T31N, I34L, L37V, F52Y, A62E, T69S, E100G, G109A, S112T
VL: B3 VL with T47I
notes: Murine hybridoma mAb, protein G purified; also called VH18/VL18
B9: anti-LRP6 monoclonal antibody 1293.11 (antibody, V domains shown)
VH: B4 VH with T113A
VL: B3 VL with Y31F, F42S, W46L, T47I, V82A
notes: Murine hybridoma mAb, protein G purified; also called VH20/VL20
B10: anti-LRP6 monoclonal antibody 931.1 (antibody, V domains shown)
VH: DVNLVESGGGLVKLGGSLKLSCAASGFTFSSFYMSWVRQTPEKRLDLVATINTNGGSTYYSDTVKGRFTISRDNAKNTLYLQMNSLKSEDTALFYCVRQPYYGGTMDYWGQGTSVTVSS
VL: DIVLTQSPATLSVTPGDRVSLSCRASQSINNNLHWYQQKSHESPRLLIKYASQSISGIPSRFSGSGSGTDFTLSINSVETEDFGMYFCQQTNNWPLTFGAGTKLEL
notes: Murine hybridoma mAb, protein G purified; also called VH13/VL13
B11: anti-LRP6 monoclonal antibody 240.8 (antibody, V domains shown)
VH: DVKLVESGGGLVKLGGSLKLSCAASGFTFSSYYMSWVRQTPEKRLELVAAINSNGGSTYYADTMKGRFTISRDNAKNTLYLQMISLKSEDTAFYYCASELAGYGTPFAYWGHGTLVTVSA
VL: B10 VL with S7F, R18S, N30S, N31S, K39T, S65T, T91S, N93T
notes: Murine hybridoma mAb, protein G purified; also called VH4/VL4
B12: anti-LRP6 monoclonal antibody 498.3 (antibody, V domains shown)
VH: DVKLVESGGGLVRLGGSLKLSCAASGFTFSTYYMSWVRQTPEKRLELVATINTNGGSTYYPDTLKGRFTISRDNAKNTLYLQMSSLRSEDTALYYCARQRNYGVAVDSWGQGTSVTVSS
VL: B10 VL with R18S, N30S, L106R
notes: Murine hybridoma mAb, protein G purified; also called VH7/VL7
B13: anti-LRP6 monoclonal antibody 213.7 (antibody, V domains shown)
VH: DVKLVESGGGLVKVGGSLKLSCAASGFTFSSYYMSWVRQTPEKRLELVAVINTNGGSTYYSDTVKGRFTISRDNAKNTLYLQMSSLKSEDTALYYCSRQPYYGNPFDYWGQGTTLTVSS
VL: B10 VL with R18S, N30S, A51V, T91S
notes: Murine hybridoma mAb, protein G purified; also called VH3/VL3
B14: anti-LRP6 monoclonal antibody 1213.2 (antibody, V domains shown)
VH: B10 VH
VL: B10 VL
notes: Murine hybridoma mAb, protein G purified; also called VH17/VL17
B15: anti-LRP6 monoclonal antibody 1115.3 (antibody, V domains shown)
VH: B11 VH with K19R, T28S, S31T, Y32S, S53L, A61S, M64V, I84S, H112Q
VL: B10 VL with R18S, R24K, N30S, A51T, S74T, S77N, T91S, N93S, L106V
notes: Murine hybridoma mAb, protein G purified; also called VH16/VL16
B16: anti-LRP6 monoclonal antibody 923.3 (antibody, V domains shown)
VH: B11 VH with L14V, S53I, A61P, M64V, I84S, H112Q
VL: B10 VL with R18S, N30S, T91S
notes: Murine hybridoma mAb, protein G purified; also called VH12/VL12
B17: anti-LRP6 monoclonal antibody 606.4 (antibody, V domains shown)
VH: B13 VH with T53S, D62E
VL: B10 VL with R18S, N30S, A51V, T91S
notes: Murine hybridoma mAb, protein G purified; also called VH9/VL9

As usually defined, the Kd is the concentration at which binding is half-saturated. By koff is commonly meant the rate constant with which the complex falls apart. As usually defined, the kon is the second-order rate constant of association.

The assay deals with T1, Human LRP6-Fc (R&D Systems), …. Description: SPR (BIAcore), mAb captured on anti-mouse chip, Fc-antigen injected, 1:1 model. The method, then: Kinetic rate constants (kₐ and kd) were determined using surface plasmon resonance, and affinities (KD) were then calculated from the rate constants (kd/kₐ). Surface plasmon resonance was carried out on a BIAcore system (Biacore International AB, Uppsala, Sweden). Each murine anti-LRP6 mAb sample was diluted 100 fold and captured onto an anti-mouse sensor chip surface. The running buffer contained 10 mM HEPES, 150 mM NaCl, 0.005% Tween-20 and 0.1 mg/ml BSA. Following the capturing step, the Fc-antigen was injected at 45 nM as the highest concentration in a 3-fold dilution series. The association and dissociation phases were monitored for 8 and 60 minutes, respectively. The antigen response data were fit into a 1:1 interaction model.
For B1, the Kd was determined as 0.55 nM, the koff stood at 3.5e-05 s⁻¹ and the kon worked out at 63200 M⁻¹ s⁻¹.

For the molecule B2, the Kd amounted to 1.83 nM, the koff was 8.3e-05 s⁻¹ and the kon stood at 45500 M⁻¹ s⁻¹.

Regarding B3, the Kd stood at 18 nM, the koff amounted to 8.47e-05 s⁻¹ and the kon is 4700 M⁻¹ s⁻¹.

Consider B4, for which the Kd came out at 3.2 nM, the koff came to 0.000114 s⁻¹ and the kon stood at 35400 M⁻¹ s⁻¹.

As to B5, the Kd was 0.9 nM, the koff stood at 3.15e-05 s⁻¹ and the kon was 35200 M⁻¹ s⁻¹.

With B6, the Kd stood at 1.73 nM, the koff was 7.7e-05 s⁻¹ and the kon turned out to be 44600 M⁻¹ s⁻¹.

For B7, the Kd was 0.95 nM, the koff amounted to 4.5e-05 s⁻¹ and the kon was 47400 M⁻¹ s⁻¹.

With B8, the Kd is 2.15 nM, the koff was 7.3e-05 s⁻¹ and the kon stood at 34000 M⁻¹ s⁻¹.

On to B9, for which the Kd is 57 nM, the koff turned out to be 0.000124 s⁻¹ and the kon was 2200 M⁻¹ s⁻¹.

With B10, the dissociation constant Kd was found to be 1.12 nM, the koff turned out to be 6.3e-05 s⁻¹ and the kon turned out to be 56300 M⁻¹ s⁻¹.

Take B11: the Kd came out at 6.55 nM, the koff is 4e-05 s⁻¹ and the kon was determined as 6110 M⁻¹ s⁻¹.

Turning to B12, the dissociation constant Kd stood at 0.98 nM, the koff turned out to be 5e-05 s⁻¹ and the kon is 50500 M⁻¹ s⁻¹.

Consider B13, for which the Kd was found to be 1.72 nM, the koff was determined as 9.6e-05 s⁻¹ and the kon was determined as 55600 M⁻¹ s⁻¹.

Turning to B14, the Kd worked out at 1.07 nM, the koff amounted to 6.3e-05 s⁻¹ and the kon was found to be 58800 M⁻¹ s⁻¹.

B15: the Kd came to 1.45 nM, the koff stood at 5.34e-05 s⁻¹ and the kon is 36800 M⁻¹ s⁻¹.

For B16, the Kd is 2.33 nM, the off-rate (koff) was found to be 7.4e-05 s⁻¹ and the kon came to 31600 M⁻¹ s⁻¹.

On to B17, for which the Kd is 1.08 nM, the koff amounted to 5.7e-05 s⁻¹ and the kon worked out at 53200 M⁻¹ s⁻¹.
